The values below come from publication PMC9560800.

The target in assay [1] is tag-less B.1.617.2 trimeric spike protein (SARS-CoV-2 | T4 phage). In words: SEC-MALS. In general terms: Size exclusion chromatography separates by hydrodynamic size, large species first.
For assay [2], the target named is tag-less B.1.351 trimeric spike protein (SARS-CoV-2 | T4 phage). In words: SEC-MALS.

Several values for one entry are separate records, joined by “and”; a condition that tells them apart may be missing. Equal entries are not always repeated.

The stoichiometry N is a count of units in the complex or per binding partner. Take “tag-less B.1.617.2 trimeric spike protein”: in assay [1], the stoichiometry N is 3 and 6.

As for tag-less B.1.351 trimeric spike protein, the stoichiometry N in assay [2] is 3 and 6.
